Measured values from patent US20230250176A1 (DRAGONFLY THERAPEUTICS, published 2023).

Target: T1, human EGFR L747-E749del, A750P on HCC4006 cells (human, UniProt P00533 25-1210)
T1 construct: whole, on cells; The deletion L747-E749 cannot be written as a substitution; it stands under detail; also called EGFRmut L747-E749del, A750P
Assay: flow cytometry, HCC4006 cells

EC50: 1.8 nM
Max FOB: 160 fold over background
B1: EGFR-TriNKET (bispecific antibody, human IgG1, kappa)
chain: DIQMTQSPSSLSASVGDRVTITCQASQDISNYLNWYQQKPGKAPKLLIYDASNLETGVPSRFSGSGSGTDFTFTISSLQPEDIATYYCQHFRHLPLAFGCGTKVEIKGGGGSGGGGSGGGGSGGGGSQVQLQESGPGLVKPSETLSLTCTVSGGSVSSGDYYWTWIRQSPGKCLEWIGHIYYSGNTNYNPRLKSRLTISIDTSKTQFSLKLSSVTAADTAIYYCVRDRVTGAFDIWGQGTMVTVSSGSDKTHTCPPCPAPELLGGPSVFLFPPKPKDTLMISRTPEVTCVVVDVSHEDPEVKFNWYVDGVEVHNAKTKPREEQYNSTYRVVSVLTVLHQDWLNGKEYKCKVSNKALPAPIEKTISKAKGQPREPRVYTLPPCRDELTKNQVSLTCLVKGFYPSDIAVEWESNGQPENNYKTTPPVLVSDGSFTLYSKLTVDKSRWQQGNVFSCSVMHEALHNHYTQKSLSLSPG
heavy: EVQLVESGGGLVKPGGSLRLSCAASGFTFSSYSMNWVRQAPGKGLEWVSSISSSSSYIYYADSVKGRFTISRDNAKNSLYLQMNSLRAEDTAVYYCARGAPIGAAAGWFDPWGQGTLVTVSSASTKGPSVFPLAPSSKSTSGGTAALGCLVKDYFPEPVTVSWNSGALTSGVHTFPAVLQSSGLYSLSSVVTVPSSSLGTQTYICNVNHKPSNTKVDKKVEPKSCDKTHTCPPCPAPELLGGPSVFLFPPKPKDTLMISRTPEVTCVVVDVSHEDPEVKFNWYVDGVEVHNAKTKPREEQYNSTYRVVSVLTVLHQDWLNGKEYKCKVSNKALPAPIEKTISKAKGQPREPQVCTLPPSRDELTENQVSLTCLVKGFYPSDIAVEWESNGQPENNYKTTPPVLDSDGSFFLYSWLTVDKSRWQQGNVFSCSVMHEALHNHYTQKSLSLSPG
light: DIQMTQSPSSVSASVGDRVTITCRASQGISSWLAWYQQKPGKAPKLLIYAASSLQSGVPSRFSGSGSGTDFTLTISSLQPEDFATYYCQQGVSFPRTFGGGTKVEIKRTVAAPSVFIFPPSDEQLKSGTASVVCLLNNFYPREAKVQWKVDNALQSGNSQESVTEQDSKDSTYSLSSTLTLSKADYEKHKVYACEVTHQGLSSPVTKSFNRGEC
notes: also called EGFR-TriNKET-3
